Experimental data: patent US7183065

Experiments:
[1] = target: histone H1 peptide SEQ ID NO: 20 (human); assay: ELISA on coated peptide; rFab at 1.0, 3.0 and 10.0 µg/ml
[2] = target: histone H1 peptide SEQ ID NO: 17 (human); assay: as above

B1: NANUC-2 (Fab)
chain 1: VKLLEQSGGGVVQPGKSLRLSCAASGFTFRNYGMHWVRQAPGKGLEWVAGISSDGRKKKYVDSVKGRFTISRDKSKNTLYLQMNSLRAEDTAVYYCAKLSRAGGFDIWGQGTMVTVSS
chain 2: AELTQSPGTLSLFPGERATLSCRASQRISTSFLAWYQQKPGQSPRLLIFDASTRAPGIPDRFSASWSGTDFTLTISRLEPEDFAVYYCQHYGGSPWTFGQGTKVEIK
[1]
  OD405: 0.5 OD405
[2]
  OD405: 0.25 OD405
